Source: patent US20090074722A1, “Products and methods for treating PTP lar diseases” (MAX-PLANCK-GESELLSCHAFT ZUR, priority 1999, published 2009)

T1: tyrosine phosphorylated β-catenin (Homo sapiens, UniProt P35222)
T1 construct: expressed in transfected cells; host or cells: human 293 embryonic kidney cells, transient; CMV-promoter vector; immunoprecipitated with anti-β-catenin antibody
T1 sequence (P35222 1-781): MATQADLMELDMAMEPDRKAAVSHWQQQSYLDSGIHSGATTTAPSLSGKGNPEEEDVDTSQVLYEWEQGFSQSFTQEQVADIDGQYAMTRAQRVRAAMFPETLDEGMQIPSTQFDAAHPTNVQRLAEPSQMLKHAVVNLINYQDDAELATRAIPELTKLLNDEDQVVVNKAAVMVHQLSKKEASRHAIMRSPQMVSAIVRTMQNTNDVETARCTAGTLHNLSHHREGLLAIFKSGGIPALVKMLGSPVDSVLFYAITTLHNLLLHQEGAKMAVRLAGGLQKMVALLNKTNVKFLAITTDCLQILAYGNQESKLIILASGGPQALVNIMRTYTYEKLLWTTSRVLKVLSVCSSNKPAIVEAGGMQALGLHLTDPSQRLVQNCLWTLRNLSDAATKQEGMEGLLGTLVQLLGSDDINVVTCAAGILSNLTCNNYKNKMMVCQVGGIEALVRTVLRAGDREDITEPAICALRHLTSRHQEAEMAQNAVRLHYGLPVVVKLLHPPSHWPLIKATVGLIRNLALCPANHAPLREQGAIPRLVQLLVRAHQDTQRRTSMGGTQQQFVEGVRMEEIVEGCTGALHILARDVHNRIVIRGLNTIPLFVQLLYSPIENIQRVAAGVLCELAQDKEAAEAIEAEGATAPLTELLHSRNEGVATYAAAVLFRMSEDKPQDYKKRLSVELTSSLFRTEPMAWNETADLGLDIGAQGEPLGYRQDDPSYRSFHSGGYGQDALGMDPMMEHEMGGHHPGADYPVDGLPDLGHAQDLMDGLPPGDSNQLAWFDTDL


Biological target: T1, tyrosine phosphorylated β-catenin
Assay: In vitro dephosphorylation assay
Format: biochemical
Conditions: 200 ng GST fusion protein, 25° C.; within the first five minutes; anti-phosphotyrosine Western blot
Method: After 24 h of serum starvation, the cells were stimulated with pervanadate before lysis. β-catenin was subsequently immunoprecipitated with an anti-β-catenin antibody, and precipitates were incubated for the indicated time intervals with GST-PTP LAR cytoplasmic fusion protein (left), GST-PTP LAR PTP D1 C1522S-mutant (middle) or GST-PTP LAR PTP D2 C1813S-mutant (right). Reactions were terminated after the indicated periods of time, and proteins were separated by SDS-PAGE. Tyrosine phosphorylation levels of […] were analyzed by Western blotting with an anti-phosphotyrosine antibody (top). […] Arrows indicate the proteins of interest.
In Vitro Dephosphorylation Assay—β-catenin was transiently overexpressed in human 293 embryonic kidney cells. Cells were serum-starved, treated with pervanadate ([…]/0.1 mM Na-orthovanadate) for 10 minutes and lysed. Immunoprecipitations were performed as described above except that HNTG without pyrophosphate, ammonium-molybdate, and Na-orthovanadate was used. PTP activity towards tyrosine phosphorylated β-catenin was assayed in 200 μL reactions at 25° C. containing 25 mM HEPES, pH 7.5, 5 mM EDTA, 10 mM DTT, and 1 mg/mL BSA with 200 ng of GST-hPTP LAR cytoplasmic, GST-hPTP LAR D1 C1522S, or GST-hPTP LAR D2 C1813S added. Reactions were stopped by washing with HNTG and subsequently separated by SDS-PAGE. The tyrosine phosphorylation status was analyzed by Western blotting using anti-phosphotyrosine antibody.
The association of β-catenin and plakoglobin with PTP LAR prompted the investigation of whether these proteins could represent actual substrates for PTP LAR. […] After different time intervals, the reactions were terminated and analyzed with an anti-phosphotyrosine specific antibody.

Molecule	tyrosine phosphorylation signal of β-catenin
GST-PTP LAR PTP D2 C1813S: GST fusion of PTP LAR cytoplasmic domain with inactivated PTP domain 2 (protein) KRKRTHSPSSKDEQSIGLKDSLLAHSSDPVEMRRLNYQTPGMRDHPPIPITDLADNIERLKANDGLKFSQEYESIDPGQQFTWENSNLEVNKPKNRYANVIAYDHSRVILTSIDGVPGSDYINANYIDGYRKQNAYIATQGPLPETMGDFWRMVWEQRTATVVMMTRLEEKSRVKCDQYWPARGTETCGLIQVTLLDTVELATYTVRTFALHKSGSSEKRELRQFQFMAWPDHGVPEYPTPILAFLRRVKACNPLDAGPMVVHCSAGVGRTGCFIVIDAMLERMKHEKTVDIYGHVTCMRSQRNYMVQTEDQYVFIHEALLEAATCGHTEVPARNLYAHIQKLGQVPPGESVTAMELEFKLLASSKAHTSRFISANLPCNKFKNRLVNIMPYELTRVCLQPIRGVEGSDYINASFLDGYRQQKAYIATQGPLAESTEDFWRMLWEHNSTIIVMLTKLREMGREKCHQYWPAERSARYQYFVVDPMAEYNMPQYILREFKVTDARDGQSRTIRQFQFTDWPEQGVPKTGEGFIDFIGQVHKTKEQFGQDGPITVHCSAGVGRTGVFITLSIVLERMRYEGVVDMFQTVKTLRTQRPAMVQTEDQYQLCYRAALEYLGSFDHYAT	significant reduction in the tyrosine phosphorylation signal
GST-PTP LAR PTP D1 C1522S: GST fusion of PTP LAR cytoplasmic domain with catalytically inactivated PTP domain 1 (protein) KRKRTHSPSSKDEQSIGLKDSLLAHSSDPVEMRRLNYQTPGMRDHPPIPITDLADNIERLKANDGLKFSQEYESIDPGQQFTWENSNLEVNKPKNRYANVIAYDHSRVILTSIDGVPGSDYINANYIDGYRKQNAYIATQGPLPETMGDFWRMVWEQRTATVVMMTRLEEKSRVKCDQYWPARGTETCGLIQVTLLDTVELATYTVRTFALHKSGSSEKRELRQFQFMAWPDHGVPEYPTPILAFLRRVKACNPLDAGPMVVHCSAGVGRTGCFIVIDAMLERMKHEKTVDIYGHVTCMRSQRNYMVQTEDQYVFIHEALLEAATCGHTEVPARNLYAHIQKLGQVPPGESVTAMELEFKLLASSKAHTSRFISANLPCNKFKNRLVNIMPYELTRVCLQPIRGVEGSDYINASFLDGYRQQKAYIATQGPLAESTEDFWRMLWEHNSTIIVMLTKLREMGREKCHQYWPAERSARYQYFVVDPMAEYNMPQYILREFKVTDARDGQSRTIRQFQFTDWPEQGVPKTGEGFIDFIGQVHKTKEQFGQDGPITVHCSAGVGRTGVFITLSIVLERMRYEGVVDMFQTVKTLRTQRPAMVQTEDQYQLCYRAALEYLGSFDHYAT	No change in phosphorylation levels
